± gives the uncertainty stated by the source.
Test: amyloid nucleation score (Sup35N fusion, yeast selection) (log enrichment); library NNK1; higher = more nucleation; inactive = no reads after selection
In short: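 Random libraries were run with three technical output replicates. In each, psi-negative yeast expressing Sup35N fused to peptides of 20 random codons were induced 24 hours with 100 μM copper sulfate and grown 7 days at 30°C on medium lacking adenine and uracil, and input and output plasmid inserts were Illumina-sequenced. The nucleation score is the DiMSum log enrichment of output over input reads, centred on the mode score of non-aggregating sequences, and sequences under 100 input reads were excluded.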

Substance	amyloid nucleation score
VVLGCDVMLYRISFPFMIHS	-0.036 ± 0.47
VVLNIR	-0.232 ± 0.52
VVLRSGINL	-0.561 ± 0.29
VVMMWDI	inactive
VVMRPIFYGNSWLVRPLRNM	-0.272 ± 0.45
VVSRRVYDYTMDGLWGQ	0.44 ± 0.36
VVSRWLRVFNFFEAKDFILV	-1.74 ± 2.7
VVSYTVQGGRSSHMANWG	0.35 ± 0.92
VVVWVFHFYAC	1.16 ± 0.71
VVYHT	-0.368 ± 0.28
VVYHVFFWELTNAKHNLPML	-1.17 ± 2.4
VWCRNAVDTMLIPMCTTPGY	0.372 ± 0.6
VWIPYCLNFQSCNNHKLSLA	-1.13 ± 1
VWLMFLSWLV	-0.639 ± 0.78
VWLWDLA	1.25 ± 0.62
VWRGRGCNHLYVMEEKLVGV	0.623 ± 0.41
VWVKAMSFFWVIALPHAVYV	inactive
VYAYVSHLLIYVFSGRV	inactive
VYCCLNFLAFNFSWV	6.308 ± 0.063
VYCSLPRFRHLTSSILVTII	-0.07 ± 1.4
VYFGDLLLKTSYL	-0.747 ± 1.1
VYFVTFWSYVNFHV	-0.208 ± 0.28

Substance	amyloid nucleation score
VYILLRVRVWSFYVVVVSRF	0.484 ± 0.28
VYLGRFTPDGVMNYYNYSYV	-0.763 ± 1.4
VYLSRHTNRG	1.53 ± 0.43
VYLVGASWPADVDEFGGRKD	-0.402 ± 0.54
VYMGFVCEIVVNKEKRVGTF	0.008 ± 0.84
VYRNAINSVIHFDGVVWGVG	inactive
VYRRIYNFECWSSKCMLGYP	-0.129 ± 1.6
VYSGYSCCAWLLIWTSDGTD	8.255 ± 0.048
VYTWPTICNCQRL	0.128 ± 0.36
VYWNV	1.1 ± 0.57
VYWTVDIWVFFVTAC	1.49 ± 0.13
VYYIVFPTTLSVDKFFPIWC	2.26 ± 0.18
WAILNDVMYHMWLNTFRTNV	-0.295 ± 0.64
WANRVCMCLRTSFYHL	0.004 ± 0.62
WARESRIHTYVRVMFSGKWG	0.517 ± 0.54
WAVRIVHMRVFFGLPVDW	-0.697 ± 0.58
WAWYLCSPESANFHNLHRLW	0.324 ± 1.1
WAYWRYVNENRSVCRRKVGF	-0.053 ± 0.31
WCFVTHLLLCFLLDDKNFTW	inactive
WCGLARREKCRMPNGHRVHI	-0.497 ± 0.48
WCLSG	-0.498 ± 0.48
WCLWCVQVRFFFNVLFFK	0.95 ± 0.44

Substance	amyloid nucleation score
WCQKYNFRCSVLDLTFSLLW	6.71 ± 0.069
WCSLGCNYTVLFTLLGMVNT	0.116 ± 0.37
WCVFSLLKCINSLAQHFKGS	inactive
WDHLRGLTCNVFIMIVKSFF	1.4 ± 0.36
WDSLVLGKLYKLIFDQASPV	-1.31 ± 1.3
WDWGMCTCRWRDSAASWGKR	0.432 ± 0.34
WEIAE	0.939 ± 0.19
WENLKVSNYDLYSVLPLYGP	0.381 ± 0.45
WFFAAVWVLEFYEFR	-0.432 ± 0.3
WFGSYWSIVVTTVRVIV	inactive
WFRIKGTGTLTPLKQHYSIN	-0.355 ± 0.56
WFRRLVTFSYNGWSYLSD	-0.779 ± 0.73
WFRSGDNLRIM	1.65 ± 0.55
WFRVGVPHN	0.472 ± 1.2
WFRYYYLFNRVRTFRERTNF	0.094 ± 1.4
WFSAASGIMKEFSVG	-0.277 ± 0.36
WFVGGTWQGAMNKGPTFVN	0.078 ± 0.56
WFVKLNFLCLCVNMDWHSTY	0.352 ± 0.28
WGAYTLKVGVDLIP	0.195 ± 0.57
WGSSLRRTYMFYLDFDGWVN	-0.405 ± 1.7
WGSYS	0.118 ± 1.1
WHLSMRLDLPT	0.363 ± 0.65

Substance	amyloid nucleation score
WHTRDYLKRRL	0.906 ± 0.75
WISETMFSVSAMSPVTSDAF	-0.713 ± 0.4
WIVRPSGCGVTTR	-0.414 ± 0.69
WKMNGPFDFDPRRMISHDLK	-0.158 ± 0.42
WLCTMLYVVVIRGCNVGNLE	-0.393 ± 0.65
WLEGLKYKLAVDGRFNQSWG	-0.086 ± 0.81
WLGRYQLLWLALGWIITRRG	1.51 ± 0.47
WLLNMENYWTVSTAGWSRWN	0.332 ± 0.46
WLNSEAWDYLATLGLSFNYS	0.761 ± 0.75
WLNWSSYRRTISKLVRGFFS	-0.295 ± 1.9
WLVHFDHTPNTSL	-0.069 ± 0.53
WLVTDFVCHLITNTIYTLLL	inactive
WNDRSGDVSLPCS	0.027 ± 0.61
WNLNKYSFILALDGSYYVLN	3.23 ± 0.24
WNQTSPRQCAVTMSANVTGN	0.575 ± 0.68
WNRRGA	-0.054 ± 0.35
WNSRTSESC	2.97 ± 0.15
WNSVVHINSVNYCV	6.732 ± 0.059
WNYPYIFVGGPKKIGGGRRG	0.584 ± 0.58
WNYRGIKYF	0.129 ± 0.39

— the supplement of paper PMC12042874
